Data on 70 molecules can be found in US20250011363A1, “OPTIMIZED SHORTENED PEPTIDE THAT BINDS TO ACETYLCHOLINE RECEPTOR, AND USE THEREOF” (SKINMED CO., LTD., priority 2021, published 2025).

Test [1] concerns the target acetylcholine receptor. Description: SPR, peptide at 10 uM, acetylcholine receptor immobilized on chip. (In general: SPR reads the build-up and loss of mass on a sensor chip optically.)
Test [2] deals with acetylcholine receptor. Description: SPR, AchR immobilized on chip.

As to KDWIR [5mer-947], the Binding affinity (RU) in test [1] was 27 RU.
Consider RNEKK [5mer-924], for which the Binding affinity (RU) in test [1] worked out at 27 RU.
KDKGK [5mer-943] yielded a Binding affinity (RU) in test [1] of 12 RU.
Still for that read-out and setting: then KHTVK [5mer-647], with 29 RU; and KKKFK [5mer-921], with 21 RU; and KMMMR [5mer-934], with 17 RU.
In test [1], KKSMK [5mer-621] yielded a Binding affinity (RU) of 13 RU.
Still for that read-out and setting: then KDTKR [5mer-646], with 16 RU; and RYEKR [5mer-945], with 23 RU; and RCMHK [5mer-620], with 23 RU.
Same read-out and setting: in the case of RNCWK [5mer-926] it was 22 RU; in that of KMHAR [5mer-939], 24 RU.
Take RMNGR [5mer-635]: in test [1], the Binding affinity (RU) is 21 RU.
For GRRQRR, the Binding affinity (relative to RRQRR) (relative value to the RRQRR sequence) in test [2] was 132.
The molecule KCWMK [5mer-923] gave a Binding affinity (RU) in test [1] of 19 RU.
In test [1], KNHHR [5mer-941] returned a Binding affinity (RU) of 21 RU.
Still for that read-out and setting: in the case of KNPHK [5mer-640] it was 15 RU.
RRQRRG: in test [2], the Binding affinity (relative to RRQRR) (relative value to the RRQRR sequence) turned out to be 109.
In test [1], KMSPK [5mer-627] yielded a Binding affinity (RU) of 30 RU.
Still for that read-out and setting: then KDSFK [5mer-948], with 18 RU; and RYEFK [5mer-944], with 25 RU; and KNTGR [5mer-623], with 19 RU.
Take RMKWK [5mer-644]: the Binding affinity (RU) in test [1] is 24 RU.
Still for that read-out and setting: then KCAPR [5mer-917], with 11 RU.
Same read-out and setting: then KCDHK [5mer-637], with 28 RU.
In test [1], RNNVR [5mer-918] gave a Binding affinity (RU) of 12 RU.
In the case of RKPKR [5mer-622], in test [1], the Binding affinity (RU) is 22 RU.
The same measure, in the same setting: in the case of RTAWK [5mer-932] it was 27 RU; in that of RITWK [5mer-641], 22 RU.
The same measure, in the same setting: in the case of KPKIK [5mer-920] it was 15 RU; in that of KDCFK [5mer-925], 25 RU; in that of RHKDK [5mer-645], 20 RU.
Still for that read-out and setting: then KCSFK [5mer-619], with 19 RU; and KETWK [5mer-639], with 13 RU.
Consider KHCIR [5mer-638], for which the Binding affinity (RU) in test [1] turned out to be 33 RU.
In turn, RDEDR [5mer-927] yielded a Binding affinity (RU) in test [1] of 19 RU.
KNKKR [5mer-648] gave a Binding affinity (RU) in test [1] of 15 RU.
On the same count and under the same terms, in the case of RAAKR [5mer-633] it was 20 RU.
In turn, RMSWK [5mer-618] registered a Binding affinity (RU) in test [1] of 19 RU.
RPSDR [5mer-942] yielded a Binding affinity (RU) in test [1] of 11 RU.
The same measure, in the same setting: in the case of KYPWR [5mer-946] it was 32 RU; in that of KNNIK [5mer-919], 32 RU.
For ARRQRR, the Binding affinity (relative to RRQRR) (relative value to the RRQRR sequence) in test [2] was found to be 129.
For RETFK [5mer-935], the Binding affinity (RU) in test [1] was found to be 32 RU.
The molecule RRQRRV gave a Binding affinity (relative to RRQRR) (relative value to the RRQRR sequence) in test [2] of 120.
KDKGR [5mer-636] yielded a Binding affinity (RU) in test [1] of 11 RU.
KHDGR [5mer-643] came in with a Binding affinity (RU) in test [1] of 28 RU.
Same read-out and setting: then KEHER [5mer-624], with 22 RU.
On to RIEFK [5mer-938], for which the Binding affinity (RU) in test [1] was found to be 18 RU.
In the case of RITER [5mer-931], the Binding affinity (RU) in test [1] came to 11 RU.
Still for that read-out and setting: then RMMMR [5mer-634], with 26 RU.
As to CRRQRR, the Binding affinity (relative to RRQRR) (relative value to the RRQRR sequence) in test [2] came out at 123.
In turn, KASNR [5mer-937] had a Binding affinity (RU) in test [1] of 21 RU.
Consider RRQRRA, for which the Binding affinity (relative to RRQRR) (relative value to the RRQRR sequence) in test [2] amounted to 113.
The molecule KCMGK [5mer-940] came in with a Binding affinity (RU) in test [1] of 18 RU.
Molecule RFSHR [5mer-632] showed a Binding affinity (RU) in test [1] of 33 RU.
Same read-out and setting: in the case of RITFR [5mer-630] it was 30 RU; in that of RAWDR [5mer-642], 22 RU; in that of RPANR [5mer-631], 17 RU.
Regarding VRRQRR, in test [2], the Binding affinity (relative to RRQRR) (relative value to the RRQRR sequence) came out at 135.
In test [1], RYMDR [5mer-628] yielded a Binding affinity (RU) of 19 RU.
On the same count and under the same terms, in the case of RYMKK [5mer-933] it was 27 RU.
KYTFR [5mer-929] showed a Binding affinity (RU) in test [1] of 28 RU.
The same measure, in the same setting: then KHMVR [5mer-928], with 27 RU; and RMWKR [5mer-922], with 14 RU; and RNHKR [5mer-936], with 29 RU.
On the same count and under the same terms, then KMCDR [5mer-625], with 33 RU.
Take RPTNK [5mer-629]: in test [1], the Binding affinity (RU) came to 32 RU.
As for KICMR [5mer-626], in test [1], the Binding affinity (RU) came out at 12 RU.
With RAWVR [5mer-930], in test [1], the Binding affinity (RU) came out at 20 RU.
